From the nanobody polyreactivity screen of Harvey et al. (2022)

Assay: yeast display, Sf9 membrane polyspecificity reagent, FACS + sequencing; frameworks hold sequencing errors
How it was run: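 Polyreactivity labels are assigned by the sorting gate from which each nanobody was recovered. The gates were low and high (top ~1%), set on anti-HA fluorescence for expression and streptavidin fluorescence for reagent binding. Before sorting, galactose-induced (36–48 hours) yeast display cells were stained for 1 hour at 4 °C with 10% biotinylated, detergent-solubilized Sf9 membrane reagent.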

Row | Sequence | polyreactivity (PSR sort gate)
1 | QVQLVESGGGLVQAGGSLRLSCAASGSISKYTMGWYRQAPGKERELVAAINWSGGSTYADSVKGRFTISRDNAKNTVYLQMNSLKPEATAVYYCNARAQRGYFGYRYNYWGQGTQVTVSS | high polyreactivity
2 | QVQLVESGGGLVQAGGSLRLSCAASGITLFHYVMGWYRQAPGKERELVADITWRGGNTFYADSVKGRFTISRDNAKNTVYLQMNSLKPEDTAVYYCAVRQAYRTRDYDYWGQGTQVTVSS | high polyreactivity
3 | QVQLVESGGGLVQAGGSLRLSCAASGRIFTYYTKGWSRQAPGKERELVAAITRGGITNYADSVKGRFTISRDNAKNTVYLQMNSLKPEDTAVYYCNAVARVYSEGIRYGYWGQGTQVTVSS | high polyreactivity
4 | QVQLVESGGGLVQAGGSLSLSCAAYGRTFYRNAMGWYRQAPGKERELVAAISYSGGSTYYADSVKGRFTISRDNAKNTVYLQMNILKPEDTAVYYCNVLYRVDYYRRVDYWGQGTQVSVSS | high polyreactivity
5 | QVQLVESGGGLVQAGGSLRLSCAASGLIFGWYAMGWYRQAPGKERELVAAISWSGSRTNYADSVKGRFTISRDNAKNTVYLQMNSLKPEDTAVYYCAAGWGYSASRYGYWGQGTQVTVSS | high polyreactivity
6 | QVQLVDSGGGLVQAGGSLRLSCAASGSIFGLYAMGWYRQAPGKERELVAAISASGGSTYYADSVKGRFTISRDNAKNTVYLQMNSLKPEDTAVYYCAADLGYPTYDYWGQDTQVTVSS | low polyreactivity
7 | QVQLVESGGGLVQAGGSLRLSCAASGSILSYYAMGWYRQAPGKEREFVAAISSGGGTYYADSVKGRFTISRDNAKNTVYLQMNSLKPEDTAVYYCNAEIWTEGGYWGQGTQVTVSS | low polyreactivity
8 | QVQLVESGGGLVQPGGSLRLSCAASGRIFGWYAMGWYRQAPGKERELVAAITWSGTSTYYADSVKGRFTISRDNAKNTVYLQMNSLKPEDTAVYYCAADSLRGSAPTYYSTLEYWGQGTQVTVSS | low polyreactivity
9 | QVQLVESGGGLVQAGGSLRLSSAASGRTFWVYAMGCYRQAPGKESELVAAISRSGVSTYYADSVMGRFTISRDNAKNTVYLQMNSLKPEDTAVYYCAAPLIYTPLKYHYWGQGTQVTVSS | low polyreactivity
10 | QVQLVESGGGLVQAGGSLRLSCAASGFIFRYYAMGWYRQAPGKERELVAAISRTGGSTYYADSVKGRFTISRDNAKNTVYLQMNSLKPEDTAVYYCAADWWAWRAYYYWGQGTQVTVSS | high polyreactivity
11 | QVQLVESGGGLVQAGGSLRLSCAASGSICGGYAMGWYRQAPGKERELVAGITRSGGSTYYADSVKGRFTISRDNAKNTVYLQMNSLKPEDTAVYYCAVEIQFYRSPRKVRSYDYWGQGTQVTVSS | low polyreactivity
12 | QVQLVESGGGLVQAGGSLRLSCAASGITFYEYDMGWYRQAPGKERELVAAITSRGGSTYYADSVKGRFTISRDNAKNTVYLQMNSLKPEDTAVYYCNAVRGWLYVFSYPYWDDEYWGQGTQVTVSS | high polyreactivity
13 | QVQLVESGGGLVQAGGSLRLSCAASGFIFNHYAMGWYRQAPGKEREFVAAISWSGGSTYYADSVKGRFTISRDNAKNTVYLKMNSLKPEDTAVYYCAASYNGLWHGDYNYWGQGTQVTVSS | low polyreactivity
14 | QVQLVESGVGLVQAGGSLRLSCASSGRIFDLNSMGWYIQAPGKERELVAVIDRDGSTYYADSVKGRFTISRDNAKNTVYLQMNSLKPDDTAVYYCNKYWYSRHVRYWAYYAEQRYDYCGQGTQVTVSS | low polyreactivity
15 | QVHLVESGGGLVQAGGSLRLICAASGSIFSAYALGWYRQAPGKERELVAAITWRGGSTYYADSVKGRFTISRDNAKNTVYLQMNSLKPEDTAVYYCAKYYYYLRSARKYDYWGQGTQVTVSS | high polyreactivity
16 | QVQLVESGGGLVQAGGSLRLSCAASGLIFTTYAMGWYRQAPGKERELVAAISSSGDSTYYADSVKGRFTISRDNAKNTVYLQMNSLKPEDTAVYYCAARYYYRGYEFGYWGQGTQVTVSS | high polyreactivity
17 | QVQLVESGGGLDQARGSLRLSCAASGSTLAVYAIGWYRQAPGKEREFVAAISWSGVSTYYADSVKGRFTISLDNAKNTVYLQMNSLKPEDTAVYDCAAKRVRALYGGSEGGYWGQGTQVTVSS | low polyreactivity
18 | QVQLEESGGGLVQAGGSLRLSCAASGGTFYYSPMGWDREPPGKERELVAAIRWRGGNTYYADSVKGRFTISLDNAKNTVYLQMNSVKPEDTAVYYCAAQTHDYNRYVGTTAYDYWGQGTQVTVSS | low polyreactivity
19 | QVQLVESGGGLVQAGGRLRLSCAASGRTFTPNAMGWYRQAPGKERELVAAIDWRGGRTYYADSVKGRFTISRDNAKNTVYLQMNSLKPEDTAVYYCAARVDGYHYKSAGYSYGVYYWGQGTQVTVSS | low polyreactivity
20 | QVQLVESGGGLVQAGGSLRLSCADSVFTFGYYAMGWYRQAPGKERELVAAISRNGGRTYYADSVKGRFTISRDNAKNNVYLQMNSLKTVYTAVHYCNALLFFLNRVWSFDYWGQGTQVTVSS | high polyreactivity
21 | QVQLVESGAGLVQAGGSLRLSCAASGIIFSGYAMGWYTQAPGKERELVAAISYSGASTYYADSVKGRFTISRDNAKNTVYLQMNSLKPEDTAVYYCAADRRYARYWNGWRYNYWGQGTQVTVSS | high polyreactivity
22 | QVQLVESGGGFVQAGGSLRLSSAASGRTFYFYTMLWYRQAPGKERELVAAISWSGGSTYYADSVKGRFTISRDNAKNTVYLQMNSLKPEDTAVYYCAASSPWDQSNDQFYYWGQGTQVTVSS | low polyreactivity

Row | Sequence | polyreactivity (PSR sort gate)
23 | QVQLVESGGGLVQAGGSLRLSCAASGFTFTSYAMGWYRQAPGKERELVAAINRSGGSTTYADSEKGRFTISRDNAKNTVYLQMNSLKPEDTAVYYCAKAFRGHYWGQGTQVTVSS | high polyreactivity
24 | QVQLVESGGGLVQAGGSLRLSCAASGSIFYQYAMGWYRQARGKERELVAAITWDGSRTYYADSVKGRFTISRDNAKNTVYLQMNSLKPEDTAVYYCNANLAWRRYDGTYNYWGQGSQVTVSS | high polyreactivity
25 | QVQLVESGGGLVQAGGSLRLSCAASGRIFYGYAMGWYRQAPGKERELVAAITSRGTSTYYADSVKGRFTISRDTAKNTVYLQMNSLKPEDTAVYYCNAAYGRSFYSKVFSYNYWGQGTQVTVSS | high polyreactivity
26 | QDQLVESGGGIVQAGGSLRLSCAASGSTIFYYAMGWYRQAPGKERELVAASSQRGGSTRYADSVKGRFTISRDNAKNTVYLQINSLKPEDSAVYYCAAARSPYKYSYWGQGTQVTVSS | high polyreactivity
27 | QVQLVESGGGLVQAGGSLRLSCAASGRIQSVYAMGWYRQAPGKERELVAAIDYSGGSTNYADSVKGRFTISRDNGKNTVYLQMNSLKPEDTAVYYCNREGGAIAWRYLLEYLYSWGQGTQVTVSS | low polyreactivity
28 | QVQLVESGGGLVQAGGSLRLSCAASGFIFAGYAMGWYRQAPGKERELVAAINRNGRSTYYADSVKGRFTISRDNAKNTVYLQMNSLKPEDTAVYYCNARSFARIGAGKGDYWGQGTQVTVSS | high polyreactivity
29 | QVQLVESGGGLVQAGGSLRLSCAASGSTFFRYAMGWYRQAPGKERELVAAISASGGRTYYADSVKGRFTISRDNAKNTVYLQMNSLKPEDTAVYYCNRQYGPYQYYYWGQGTQVTVSS | high polyreactivity
30 | QVQLVESGGGLVQAGGSLRLSCAASGITIYRNAMGWYRQAPGKEMELVAAITRNGGRTYYADSVKGRFTISRDNAKNTVYLQMNSLKPEDTAVDYCAADSGTRNLASYRYYYWGQGTQVTVSS | high polyreactivity
31 | QVQLVESGGGLVQAGGSLRLSCAASGRTFKGNAMGWYRPAPGKERELVAVITGSGGSTYYADSVKGRFTISRDNAKNTVYLQMHSLKPEDTAVYYCAKQVRSYVRWEYDYWGQGTQGTVSS | low polyreactivity
32 | QVQLVESGGGLVQAGGSLRLSFAASGFTFYRYAMGWYRQAPGKERELVAAISGDGGSTYYAASVKGRFTISRDNAKNTVYLQMNSLKPEDTAVYYCNKYFWQYLYGYWGQGTQVTVSS | high polyreactivity
33 | QVQLQESGGGLVQAGGSQRLSCAASGYIFYFQYMGWYRQATGKEREFVAAISDGANTNYADSVKGRFTISRDNAKNTEYLQMNSLKPEDTAVYYCAVYADENYYFIYWGQGTQVTVSS | low polyreactivity
34 | QVQLVESGGGLVQAGGSLRLSCAASGRILKVYAMGGYRQAPGQERELVAAISVNGGRTYYADSVKGRFTISRDNAKNTVYLQMNSLKPEDTAVYYCAIRLYKPGNVFYSVDQSDYWGQGTQVTVSS | low polyreactivity
35 | QVQHVESGGGLVQAGGSLRLSCAASGRIFHYNAMGWYRQAPGKERELVAAITWIGGSTYADSVKGRFTISRDNAKNTVYLQMNSLKPEDTAVYYCNARYIYRFDYWGQGTQVTVSS | low polyreactivity
36 | QVQLVESGGGLVQAGGSLRLSCAASGSTFRSYTMVWYRQAPGKERELVADINGTGGSTYYADSVKGRFTISRDNAKNTVYLQMNSRKPEDTAVYNCAADGYFRTVTSGWALRMGYWGQGTQVTVSS | high polyreactivity
37 | QVQLVESGGGLVPAGGSLRLSCAASGSTFPGYAMGWYRQAPGQERELVAAISTSGGRTYYADSVKGRFTISRDNAKNTVYLQMNSLKPEDTAVYYCARVAFYVAHGGFAFGRYYYWGQGTQVTVSS | low polyreactivity
38 | QVQLVESGGGLVQAGGSLRLSCAASGSTFSLYARGWYRQAPGKETELVAAITRGGNTYYADSVKGRFTISRDNAKNTVYLQMNSLKPEDTAVYYCNAYYYQFRGIRVSGGYWGQGTQVTVSS | high polyreactivity
39 | QVQLVESGGGLVQAGGSLRLSCAASGGTFVSNAMGWYRHAPGKERELVAAITTGGTTYADSVKGRFTISRDNAKNSVYLQMKSLKPEDSAVYYCAADIYLLILGRSILQFDYWGQGTQVTVSS | low polyreactivity
40 | QVQLVESGGGLVQAGGSLRLSCAASGSIFRYYAMGWYRPAPGKERELVAAISSRGGRTYYADSVKGRFTISRDNAKNTVYLQMNSLIPEDTAVYYCAARRYRYTTPFRYGYDYWGQGTQVTVSS | high polyreactivity
41 | QVQLVESGGGLVQAGGSLSLSCAASGFIITRNAMGWYRQAPGKEWEFVARISRSSGSTYYADSVKGRFTISRDNAKITVYLKMKSLTPDDTAVYYCNTRVAGIYGFGSYDDWGQGTQVTVSS | high polyreactivity
42 | QVQLVESGGGLVQAGGSLRLSCAASGRTFFIYAMGWYRQAPGKERELVAAISNGGSTNYADSVKGRFTISRDNAKNPVYLQLNSLKPEDTAVYYCAAQYIGNLRGVFHYEFDWGQGTQVSVSS | high polyreactivity
43 | QVQLVESGGGLVQAGGSLRLSCAASGRTLSRNAMGWYRQAPGKEREFVAAISQRGGSTYYADSVKGRFTISRDNAKNTVYLQMNSLKPEDTAVYYCARRYNAQDYARFDYWGQGTQVTVSS | high polyreactivity
